Assay results reported in US20220144956A1 (published 2022).
Where a chain is given by its changes, count along the chain named. Values belong to the binder of their own block, whether it stands above or below them.

What was measured:
[1] = molecular target: Unstimulated Cyno CD3+ cells (cynomolgus monkey); assay: FACS cell binding; CD3+ cells; avid
[2] = molecular target: Unstimulated Cyno CD4 T cells (cynomolgus monkey); assay: FACS cell binding; CD4 T cells; avid
[3] = molecular target: Unstimulated Cyno CD8 T cells (cynomolgus monkey); assay: FACS cell binding; CD8 T cells; avid
[4] = molecular target: T1, His-tagged human CD5 antigen (human, UniProt P06127 25-372); assay: Octet
T1 chain: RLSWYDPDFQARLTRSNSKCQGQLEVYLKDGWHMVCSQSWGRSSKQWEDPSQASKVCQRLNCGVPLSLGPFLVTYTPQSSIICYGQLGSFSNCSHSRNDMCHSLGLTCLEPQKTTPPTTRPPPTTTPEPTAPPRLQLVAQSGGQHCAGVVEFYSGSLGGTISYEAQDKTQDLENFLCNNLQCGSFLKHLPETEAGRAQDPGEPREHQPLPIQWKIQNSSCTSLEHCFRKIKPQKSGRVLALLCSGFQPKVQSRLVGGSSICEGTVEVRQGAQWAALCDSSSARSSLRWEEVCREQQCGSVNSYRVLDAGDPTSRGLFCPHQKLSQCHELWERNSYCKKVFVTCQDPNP

[5] = molecular target: human TGFßRII (antigen of the Octet experiments) (human, UniProt P37173 23-166)
Cyno = Cyno (cynomolgus monkey); assay: Octet
[6] = molecular target: αCD5 (Clone 10) x αTGFßRII; assay: Octet
[7] = molecular target: αCD5 (Clone 9) x αTGFßRII; assay: Octet
[8] = molecular target: αCD5 (Clone 7) x αTGFßRII; assay: Octet
[9] = molecular target: αCD5 (Clone 1) x αTGFßRII; assay: Octet
[10] = molecular target: αCD5 (Clone 6) x αTGFßRII; assay: Octet
[11] = molecular target: αCD5 (Clone 11) x αTGFßRII; assay: Octet
[12] = molecular target: αCD5 (Clone 5) x αTGFßRII; assay: Octet
[13] = molecular target: αCD5 (Clone 3) x αTGFßRII; assay: Octet
[14] = molecular target: αCD5 (Clone 8) x αTGFßRII; assay: Octet
[15] = molecular target: αCD5 (Clone 4) x αTGFßRII; assay: Octet

Sequence of human TGFßRII (antigen of the Octet experiments) (P37173 23-166): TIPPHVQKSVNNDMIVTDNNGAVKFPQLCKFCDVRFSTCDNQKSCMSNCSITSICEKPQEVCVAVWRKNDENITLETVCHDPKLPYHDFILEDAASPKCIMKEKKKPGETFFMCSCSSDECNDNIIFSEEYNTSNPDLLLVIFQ

B2: XENP37388 (bispecific antibody)
heavy: QVTLKESGAELVRPGASVKLSCKASGYSFTSYWMNWVKQRPGQGLEWIGMIHPSDSETRLNQKFKDKATLTVDKSSSTAYMQLSSPTSEDSAVYYCARWGDHDDAMDFWGQGTMVTVSSASTKGPSVFPLAPSSKSTSGGTAALGCLVKDYFPEPVTVSWNSGALTSGVHTFPAVLQSSGLYSLSSVVTVPSSSLGTQTYICNVNHKPSDTKVDKKVEPKSCDKTHTCPPCPAPPVAGPSVFLFPPKPKDTLMISRTPEVTCVVVDVKHEDPEVKFNWYVDGVEVHNAKTKPREEEYNSTYRVVSVLTVLHQDWLNGKEYKCKVSNKALPAPIEKTISKAKGQPREPQVYTLPPSREEMTKNQVSLTCDVSGFYPSDIAVEWESDGQPENNYKTTPPVLDSDGSFFLYSKLTVDKSRWEQGDVFSCSVMHEALHNHYTQKSLSLSPGK
scFv-Fc: QLQVQESGPGLVKPSETLSLTCTVSGGSISNSYFSWGWIRQPPGKGLEWIGSFYYGEKTYYNPSLKSRATISIDTSKSQFSLKLSSVTAADTAVYYCPRGPTVIRGVIDSWGQGTLVTVSSGKPGSGKPGSGKPGSGKPGSEIVLTQSPATLSLSPGERATLSCRASQSVRSYLAWYQQKPGQAPRLLIYDASNRATGIPARFSGSGSGTDFTLTISSLEPEDFAVYYCQQRSNWPPTFGQGTKVEIKEPKSSDKTHTCPPCPAPPVAGPSVFLFPPKPKDTLMISRTPEVTCVVVDVKHEDPEVKFNWYVDGVEVHNAKTKPREEQYNSTYRVVSVLTVLHQDWLNGKEYKCKVSNKALPAPIEKTISKAKGQPREPQVYTLPPSREQMTKNQVKLTCLVKGFYPSDIAVEWESNGQPENNYKTTPPVLDSDGSFFLYSKLTVDKSRWQQGNVFSCSVMHEALHNHYTQKSLSLSPGK
light: DIVLTQSPASLSASVGESVTITCRPSENIYGYFAWYQQRQGKSPQLLVYNAKTLAEGVPSRFSGSGSGTHFSLKINSLQPEDFGTYYCQHHYGTPFTFGPGTKVDIKRTVAAPSVFIFPPSDEQLKSGTASVVCLLNNFYPREAKVQWKVDNALQSGNSQESVTEQDSKDSTYSLSSTLTLSKADYEKHKVYACEVTHQGLSSPVTKSFNRGEC
Kd [4]: 2.75 nM

B3: XENP36132 (bispecific antibody)
heavy: EVQLVESGGGVVQPGRSLRLSCTFSGFSLSTSGMGVGWIRQAPGKGLEWVAHIWWDDDVYYNPSLKSRLTITKDASTDTVYMELSSLRSEDTAVYYCVRRRATGTGFDYWGQGTLVTVSSASTKGPSVFPLAPSSKSTSGGTAALGCLVKDYFPEPVTVSWNSGALTSGVHTFPAVLQSSGLYSLSSVVTVPSSSLGTQTYICNVNHKPSDTKVDKKVEPKSCDKTHTCPPCPAPPVAGPSVFLFPPKPKDTLMISRTPEVTCVVVDVKHEDPEVKFNWYVDGVEVHNAKTKPREEEYNSTYRVVSVLTVLHQDWLNGKEYKCKVSNKALPAPIEKTISKAKGQPREPQVYTLPPSREEMTKNQVSLTCDVSGFYPSDIAVEWESDGQPENNYKTTPPVLDSDGSFFLYSKLTVDKSRWEQGDVFSCSVMHEALHNHYTQKSLSLSPGK
scFv-Fc: B2 scFv-Fc with S35Y, V103M
light: NIVMTQSPSSLSASVGDRVTITCQASQDVGTAVAWYQQKPDQSPKLLIYWTSTRHTGVPDRFTGSGSGTDFTLTISSLQPEDIATYFCHQYNSYNTFGSGTKLEIKRTVAAPSVFIFPPSDEQLKSGTASVVCLLNNFYPREAKVQWKVDNALQSGNSQESVTEQDSKDSTYSLSSTLTLSKADYEKHKVYACEVTHQGLSSPVTKSFNRGEC
Kd [5]: 6.1 nM

B4: XENP35399 – αCD5 (5D7) x αTGFßRII (bispecific antibody)
heavy: B3 heavy
scFv-Fc: B2 scFv-Fc
light: B3 light
Kd (Cyno): 72 nM

B5: XENP37385 (bispecific antibody)
heavy: EVQLKESGAELVRPGGSVKISCKGSGYTFTNFAIHWVKQSHIKTLEWIGLISTSSGDVSYNQKFKDKATMTVDKSSSTAYMELARLTSEDSAIYYCARHYGANNYFDYWGQGTLVTVSSASTKGPSVFPLAPSSKSTSGGTAALGCLVKDYFPEPVTVSWNSGALTSGVHTFPAVLQSSGLYSLSSVVTVPSSSLGTQTYICNVNHKPSDTKVDKKVEPKSCDKTHTCPPCPAPPVAGPSVFLFPPKPKDTLMISRTPEVTCVVVDVKHEDPEVKFNWYVDGVEVHNAKTKPREEEYNSTYRVVSVLTVLHQDWLNGKEYKCKVSNKALPAPIEKTISKAKGQPREPQVYTLPPSREEMTKNQVSLTCDVSGFYPSDIAVEWESDGQPENNYKTTPPVLDSDGSFFLYSKLTVDKSRWEQGDVFSCSVMHEALHNHYTQKSLSLSPGK
scFv-Fc: B2 scFv-Fc
light: EIVLTQSPTIMSASPGEQVTMTCRTNSSVSSSYLHWYQQKSGASPKLWIYGTSNLASGVPTRFSGSGSGTSYSLTISSVEAGDAATYFCQQYSGYPLTFGGGTKVEIKRTVAAPSVFIFPPSDEQLKSGTASVVCLLNNFYPREAKVQWKVDNALQSGNSQESVTEQDSKDSTYSLSSTLTLSKADYEKHKVYACEVTHQGLSSPVTKSFNRGEC
Kd [4]: 6.67 nM

Further lines, results first:

EC50 [1]: 0.508 µg/mL
EC50 [2]: 0.584 µg/mL
EC50 [3]: 0.415 µg/mL
B1: XENP35401 anti-CD5 clone 5D7 Bivalent (antibody, V domains shown)
VH: EVQLVESGGGVVQPGRSLRLSCTFSGFSLSTSGMGVGWIRQAPGKGLEWVAHIWWDDDVYYNPSLKSRLTITKDASTDTVYMELSSLRSEDTAVYYCVRRRATGTGFDYWGQGTLVTVSS
VL: NIVMTQSPSSLSASVGDRVTITCQASQDVGTAVAWYQQKPDQSPKLLIYWTSTRHTGVPDRFTGSGSGTDFTLTISSLQPEDIATYFCHQYNSYNTFGSGTKLEIKR

Kd [5]: 0.97 nM
Kd [4]: 1.69 nM
B6: XENP35399 (bispecific antibody)
heavy: B3 heavy
scFv-Fc: B2 scFv-Fc
light: B3 light

Kd [6]: 1.24 nM
Kd [7]: 2.99 nM
Kd [8]: 2.05 nM
Kd [9]: 7.91 nM
Kd [10]: 11.1 nM
Kd [11]: 18.6 nM
Kd [12]: 12.9 nM
Kd [13]: 1.53 nM
Kd [14]: 8.72 nM
Kd [15]: 7.03 nM
B7: Human (receptor)
chain: T1 chain
